T1: Vpr protein of HIV-1, P12520
T1 chain: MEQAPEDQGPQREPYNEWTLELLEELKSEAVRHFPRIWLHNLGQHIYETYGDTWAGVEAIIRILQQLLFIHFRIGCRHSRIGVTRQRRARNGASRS


Molecular target: T1, Vpr protein of HIV-1, P12520

Protein | CAT activity of virions (conversion of chloramphenicol to an acetylated product) | presence of the fusion protein in progeny virions (Western blotting)
dWF-CAT chimeric protein (protein) MQPWWAFFGGGSSWWSFSMGPTRMEKKITGYTTVDISQWHRKEHFEAFQSVAQCTYNQTVQLDITAFLKTVKKNKHKFYPAFIHILARLMNAHPEFRMAMKDGELVIWDSVHPCYTVFHEQTETFSSLWSEYHDDFRQFLHIYSQDVACYGENLAYFPKGFIENMFFVSANPWVSFTSFDLNVANMDNFFAPVFTMGKYYTQGDKVLMPLAIQVHHAVCDGFHVGRMLNELQQYCDEWQGGA | virions which were generated by WT/WF-CAT cells exhibited significantly higher CAT activity (28% conversion of chloramphenicol to an acetylated product) than virions which were generated by Vpr^-/WF-CAT cells (8% conversion) | 
chloramphenicol acetyltransferase (CAT) (protein) MEKKITGYTTVDISQWHRKEHFEAFQSVAQCTYNQTVQLDITAFLKTVKKNKHKFYPAFIHILARLMNAHPEFRMAMKDGELVIWDSVHPCYTVFHEQTETFSSLWSEYHDDFRQFLHIYSQDVACYGENLAYFPKGFIENMFFVSANPWVSFTSFDLNVANMDNFFAPVFTMGKYYTQGDKVLMPLAIQVHHAVCDGFHVGRMLNELQQYCDEWQGGA | CAT activity exhibited by virions which were generated by Vpr^-/WF-CAT cells was comparable to CAT activity exhibited by virions which were generated by WT/CAT cells (each 8% conversion | 
dWF-IN fusion protein (protein) MQPWWAFFGGGSSWWSFSMGPTRFLDGIDKAQEEHEKYHSNWRAMASDFNLPPVVAKEIVASCDKCQLKGEAMHGQVDCSPGIWQLDCTHLEGKVILVAVHVASGYIEAEVIPAETGQETAYFLLKLAGRWPVKTVHTDNGSNFTSTTVKAACWWAGIKQEFGIPYNPQSQGVIESMNKELKKIIGQVRDQAEHLKTAVQMAVFIHNFKRKGGIGGYSAGERIVDIIATDIQTKELQKQITKIQNFRVYYRDSRDPVWKGPAKLLWKGEGAVVIQDNSDIKVVPRRKAKIIRDYGKQMAGDDCVASRQDED |  | the presence of dWF-fusion proteins in progeny virions was dependent on expression of Vpr in cells in which the progeny virions were produced
dWF-PR-IN fusion protein (protein) MQPWWAFFGGGSSWWSFSMGPTRFLDGIDKAQEEHEKYHSNWRAMASDFNLPPVVAKEIVASCDKCQLKGEAMHGQVDCSPGIWQLDCTHLEGKVILVAVHVASGYIEAEVIPAETGQETAYFLLKLAGRWPVKTVHTDNGSNFTSTTVKAACWWAGIKQEFGIPYNPQSQGVIESMNKELKKIIGQVRDQAEHLKTAVQMAVFIHNFKRKGGIGGYSAGERIVDIIATDIQTKELQKQITKIQNFRVYYRDSRDPVWKGPAKLLWKGEGAVVIQDNSDIKVVPRRKAKIIRDYGKQMAGDDCVASRQDED |  | the presence of dWF-fusion proteins in progeny virions was dependent on expression of Vpr in cells in which the progeny virions were produced

Source: patent US6541002
